Data on three molecules can be found in paper PMC3402909 (Biopolymers, 2011).

Where a SMILES comes first, the peptide text is derived from it.

The target in assay [1] is Sos1 WT peptide 1 PEP (Homo sapiens) (UniProt Q07889). The conditions noted are these: cited from earlier work.
A further assay deals with Grb2-Sos1 association (Rattus norvegicus, UniProt P62994). In words: Blockade of Grb2-Sos1 association in PC12 cell lysates. The assay is classed as biochemical, human. The note with it: 1 μM peptide, PC12 cell lysate.
Grb2-Sos1 association, sequence (P62994 whole entry): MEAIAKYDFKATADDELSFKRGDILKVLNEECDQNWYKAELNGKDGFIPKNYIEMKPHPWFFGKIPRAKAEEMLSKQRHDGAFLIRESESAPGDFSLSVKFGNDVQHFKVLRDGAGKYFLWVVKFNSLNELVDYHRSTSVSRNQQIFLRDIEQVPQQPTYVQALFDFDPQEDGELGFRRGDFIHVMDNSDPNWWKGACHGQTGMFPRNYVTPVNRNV
The target of another assay is Grb2 SH3 N-domain. Briefly: other fluorescence titration.

Grb2 N-terminal SH3, sequence (P62993 1-58): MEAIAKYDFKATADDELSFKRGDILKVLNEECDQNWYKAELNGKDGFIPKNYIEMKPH

Turning to “Grb2 N-terminal SH3 (from UniProt P62993)”, the Kd in assay [1] is 39 µM.

In the case of `CC(=O)N1CCC[C@H]1C(=O)N[C@@H](CCCNC(=N)N)C(=O)N[C@H](C(=O)N1CCC[C@H]1C(=O)N1CCC[C@H]1C(=O)N1CCC[C@H]1C(=O)N1CCC[C@H]1C(=O)N[C@H](C(=O)N[C@@H](CCCNC(=N)N)C(=O)N[C@@H](CCCNC(=N)N)C(N)=O)C(C)C)C(C)C` [Peptide 13, Ac-P-R-V-P-P-P-P-V-R-R-NH2] (Ac-PRVPPPPVRR-NH2), at Grb2-Sos1 association, the “inhibition of Grb2-Sos1 association” value is on record as “little inhibition”.

In the case of Ac-PRVPPPPVRR-NH2 [scrambled peptide Ac-P-R-V-P-P-P-P-V-R-R-NH2 (13)], the Kd with Grb2 SH3 N-domain is 173 µM.

As usually defined, the Kd is the concentration at which binding is half-saturated.
